Measurements published in US20220356229A1 (published 2022).

B1: antibody 320 (antibody, V domains shown)
VH: QVQLVQSGAEVKKPGASVKVSCKASGYTFTSYGISWVRQAPGQGLEWMGWISAYNGNTNYAQKLQGRVTMTTDTSTRTAYMELRSLRSDDTAVYYCARVGCYYDSSGYSCAENFQHWGQGTLVTVSS
VL: QSVLTQPPSVSGAPGQRVTISCTGSSSNIGAGYDVHWYQQLPGTAPKLLIYGNSNRPSGVPDRFSGSKSGTSASLAITGLQAEDEADYYCQSYDSSLSALFGGGTKLTVL
B2: antibody 323 (antibody, V domains shown)
VH: QVQLVQSGAEVKKPGASVKVSCKVSGYTLTELSMHWVRQAPGKGLEWMGGFDPEDGETIYAQKFQGRVTMTEDTSTDTAYMELSSLRSEDTAVYYCATSTIFAPGGWFDPWGQGTLVTVSS
VL: QSALTQPASVSGSPGQSITISCTGTSSDVGSYNLVSWYQQHPGKAPKLMIYEVSKRPSGVSNRFSGSKSGNTASLTISGLQAEDEADYYCCSYAGSTHYVFGTGTKVTVL
B3: antibody 324 (antibody, V domains shown)
VH: QVQLQESGPGLVKPSGTLSLTCAVSGGSISSSNWWSWVRQPPGKGLEWIGEIYHSGSTNYNPSLKSRVTISVDNSKNQFSLKLSSVTAADTAVYYCARESVAAAGISYYYYGMDVWGQGTTVTVSS
VL: EIVLTQSPGTLSLSPGERATLSCRASQSVSGRYLAWYQQKPGQAPRLLIYGASSRATGIPDRFSGSGSGTDFTLTISRLEPEDFAVYYCQHYGSSPGTFGQGTRLEIK
B4: antibody 328 (antibody, V domains shown)
VH: QVQLQESGPGLVKPSGTLSLTCAVSGGSISSSNWWSWVRQPPGKGLEWIGEIYHSGSTNYNPSLKSRVTISVDNSKNQFSLKLSSVTAADTAVYYCARESVAAAGISYYYYGMDVWGQGTTVTVSS
VL: DIQMTQSPSSLSASVGDRVTITCRASQGIRNDLGWYQQKPGKAPKRLIYAASSLQSGVPSRFSGSGSGTEFTLTVSGLQPEDFATYYCLQYNSSPLTFGGGTKVEIK
B5: antibody 329 (antibody, V domains shown)
VH: EVQLVESGGGLVQPGGSLRLSCAASGFTFSSYWMHWVRQAPGKGLVWVSRINSDGSSTSYADSVKGRFTISRDNAKNTLYLQMNSLRAEDTAVYYCAREGIVATITLDYWGQGTLVTVSS
VL: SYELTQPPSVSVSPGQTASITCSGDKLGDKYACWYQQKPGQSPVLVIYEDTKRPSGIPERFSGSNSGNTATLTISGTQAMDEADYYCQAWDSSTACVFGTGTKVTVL
B6: antibody 331 (antibody, V domains shown)
V domain 1: QITLKESGPTLVKPTETLTLTCSFSGFSLTKTGEAAGWIRQAPGRALEWVTVIFWDDDKRYSPSLQNRISVTKDTSKNQVVLRMTNVARFDTGTYFCWAMGGPGKEYFGQGTLVAVSS
V domain 2: QSVLTQPPSVSGAPGQRVTISCTGTSSSIGPYSDVHWYQHVSGKAPRLLIFGNSNRPSGVPDRFSGSKSGTSASLVIAGLQAEDEADYYCQSYDSSLGEIYVFGTGTTVTVL
B7: antibody 332 (antibody, V domains shown)
VH: QVTLRESGPALVKPTQTLTLTCTFSGFSLSTSGMCVSWIRQPPGKALEWLALIDWDDDKYYSTSLKTRLTISKDTSKNQVVLTMTNMDPVDTATYYCARIHDDILTGYHYVDYWGQGTLVTVSS
VL: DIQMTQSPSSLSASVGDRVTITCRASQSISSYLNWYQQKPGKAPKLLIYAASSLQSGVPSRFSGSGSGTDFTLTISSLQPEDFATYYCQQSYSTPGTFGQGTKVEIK
B8: antibody 333 (antibody, V domains shown)
VH: QVHLVESGGGVVLPGRSLRLSCSASQFIFSNYDMHWVRQSPGMGLEWVAGISSDGSDKYYIDSVRGRFTISRDNAKNTLFLQMNSLTTEDTAVYSCAKGGGKFGQYWGRGTLVTVSS
VL: AIQMTQSPSSLSASVGDRVTITCRASQVIRNDLAWFQQKPGEAPNLLVYSASNLQSGVPSRFSGSGSGTDFTLTISSLQPEDFATYYCLQDYSYPYTFGQGTKLDMK
B9: antibody 337 (antibody, V domains shown)
VH: QVQLVESGGGVVQPGRSLRLSCAASGFTFSSYGMHWVRQAPGKGLEWVAIIWYDGSNKYYADSVKGRFTISRDNSKNTLYLQMNSLRAEDTAVYYCAKDTGGYCSGGSCYPESYFDYWGQGTLVTVSS
VL: SYVLTQPPSVSVAPGKTARITCGGNNIGSKSVHWYQQKPGQAPVLVIYYDSDRPSGIPERFSGSNSGNTATLTINRVEAGDEADYYCQVWDGSSDHLYVFGTGTKVTVL
B10: antibody 339 (antibody, V domains shown)
V domain 1: QITLKESGPTLVKPTETLTLTCSFSGFSLTRTGEAAGWIRQAPGRALEWVTVIFWDDDKRYSPSLQSRLTVTKDTSKNQVVLTMTNVARFDTATYFCWAMGGPGKEYFGQGTQVAVSS
V domain 2: QSVLTQPPSVSGAPGQRVTISCTGTSSSIGPYSDVHWYQHVSGKAPRLLIFGNSNRPSGVPDRFSGSKSGTSASLVIAGLQAEDEADYYCQSYDSSLGEIYVFGTGTTVTVL
B11: antibody 340 (antibody, V domains shown)
VH: QVQLVQSGAEVKKPGASVKVSCKASGYTFTSYDINWVRQATGQGLEWMGWMNPNSGNTGYAQKFQGRVTMTRNTSISTAYMELSSLRSEDTAVYYCARGRYCTGGVCWGDWYFDLWGRGTLVTVSS
VL: QSVLTQPPSVSGAPGQRVTISCTGSSSNIGAGYDVHWYQQLPGTAPKFLIYGNSNRPSGVPDRFSGSKSGTSASLAITGLQAEDEADYYCQSYDSSLSGPVFGGGTKLTVL
B12: antibody 342 (antibody, V domains shown)
VH: EVQLVQSGAEVKKPGATVKISCKVSGYTFTDYYMHWVQQAPGKGLEWMGLVDPEDGETIYAEKFQGRVTITADTSTDTAYMELSSLRSEDTAVYYCATGGVSVWFREFPASYSGSYLGYWGQGTLVTVSS
VL: not shown
B13: antibody 343 (antibody, V domains shown)
VH: QVQLVESGGDVVQPGTSLRLSCAASGFTFNNYGFHWVRQAPGKGLEWVALISSDGASTHYADSVKGRFTISRDSSVNTLYLQMNSLSLEDTAVYYCATGHCGTTCYYFDYWGQGTLVSVSS
VL: DIQVTQSPSYLSASVGDRVTITCRASQTISTFLQWYQQKVGKAPKLLIYAASTLQSGVPSRFSGSGSGTDFSLTISSLQPEDFATYYCQQSYSAPLSFGGGTKVEIK
B14: antibody 345 (antibody, V domains shown)
VH: QVQLQESGPGLVKPSQTLSLTCTVSGGSISSGDYYWSWIRQPPGKGLEWIGYIYYSGSTYYNPSLKSRVTISVDTSKNQFSLKLSSVTAADTAVYYCARVGMVDNWNFEGNWFDPWGQGTLVTVSS
VL: QSALTQPRSVSGSPGQSVTISCTGTSSDVGGYNYVSWYQQHPGKAPKLMIYDVSKRPSGVPDRFSGSKSGNTASLTISGLQAEDEADYYCCSYAGSVVFGGGTKLTVL
B15: antibody 348 (antibody, V domains shown)
VH: QVQLVQSGSELKKPGASVKVSCKASGYTFTSYAMNWVRQAPGQGLEWMGWINTNTGNPTYAQGFTGRFVFSLDTSVSTAYLQISSLKAEDTAVYYCARDHELPNTSSWFGHFEYWGQGTLVTVSS
VL: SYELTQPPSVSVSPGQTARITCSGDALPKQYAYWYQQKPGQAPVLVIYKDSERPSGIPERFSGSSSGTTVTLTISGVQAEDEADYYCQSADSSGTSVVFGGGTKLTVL
B16: antibody 349 (antibody, V domains shown)
VH: EVQLVQSGAEVKKPGATVKISCKVSGYTFTDYYMHWVQQAPGKGLEWMGLVDPEDGETIYAEKFQGRVTITADTSTDTAYMELSSLRSEDTAVYYCATENKVPTIIAAAGTRDYYYYGMDVWGQGTTVTVSS
VL: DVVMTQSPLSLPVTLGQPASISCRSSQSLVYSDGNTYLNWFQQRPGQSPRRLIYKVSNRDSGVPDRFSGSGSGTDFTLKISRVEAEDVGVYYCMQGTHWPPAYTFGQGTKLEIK
B17: antibody 351 (antibody, V domains shown)
VH: HVQLVESGGGVVQPGRSLRLSCAASGFISRNYGMEWVRQAPGQGLEWVAGIWYDGSKKYYADSVKGRFTISRDTSKNTLFLQMDSLRAEDTAVFYCATATKTFCGGDCPPGGMDVWGQGTTVTVST
VL: SYVLTQPPSVSVAPGKTAWITCVGNNIESESVHWYQQRPGQAPVLVIYYDSDRPSGIPERFFGSNSGNTATLTISRVEAGDEADYYCQVWDSNSDLMVFGGGTKLTVL
B18: antibody 363 (antibody, V domains shown)
VH: EVQLLESGGGLVQPGGSLRLSCAASGFTFSTYAMSWVRQAPGKGLEWVSAISGSGGSTYYADSVKGRFTISRDNSKNTLYLQMNSLRAEDTAVYYCASGYSPDYWGQGTLVTVSS
VL: not shown
B19: antibody 366 (antibody, V domains shown)
VH: QVQLVESGGGVVQPGRSLRLSCAASGFTFSSYAMHWVRQAPGKGLEWVAVISYDGSNKYYADSVKGRFTISRDNSKNTLYLQMNSLRAEDTAVYYCARGLVGYNWFDPWGQGTLVTVSS
VL: DIQMTQSPSSVSASVGDRVTITCRASQGISSWLAWYQQKPGKAPKLLIYAASSLQSGVPSRFSGSGSGTDFTLTISSLQPEDFATYYCQQANSFTFGPGTKVDIK
B20: antibody 367 (antibody, V domains shown)
VH: QVQLVQSGAEVKKPGASVKVSCKASGYTFTGYYIHWVRQAPGQGLEWMGWINPNSGGTIYAQKFQGRVTMTRDTSISTAYMELSRLTSDDTAVYSCAREPYYDILTGYYAPRRYFDYWGQGTLVTVSS
VL: QSALTQPASVSGSPGQSITISCTGTSSDVGSYNYVSWYLQHPGKAPKLMIYDVSNRPSGVSNRFSGSKSGNTASLTISGLQAEDEADFYCSSYTSRSTYVFGTGTKVTVL
B21: antibody 368 (antibody, V domains shown)
V domain 1: QITLKESGPTLVKPTETLTLTCAFSGFSLTKTGEAAGWIRQAPGRALEWVTVIFWDDDKRYSPSLQNRLTVTKDTSKNVVVLTMTNVDPVDTATYFCWAMGGPGKEFFGQGTRVAVSS
V domain 2: QSVLTQPPSVSGAPGQRVTVSCTGTSSSIGPYSDVHWYQHIPGKAPRLLIFGTSNRPSGVPARFSGSKSGSSASLVIAGLQAEDEADYYCQSYDSSLGEIYVFGTGTTVTVL
B22: antibody 372 (antibody, V domains shown)
VH: QVQLVESGGGVVQPGRSLRLSCAASGFTFSSYAMHWVRQAPGKGLEWVAVISYDGSNKYYADSVKGRFTISRDNSKNTLYLQMNSLRAEDTAVYYCARDLGTSALLWFGELFLNYGMDVWGQGTTVTVSS
VL: QSALTQPRSVSGSPGQSVTISCTGTSSDVGGYNYVSWYQQHPGKAPKLMIYDVSKRPSGVPDRFSGSKSGNTASLTISGLQAEDEADYYCCSYAGSPILVFGGGTKLTVL

Target: SARS-CoV Spike protein (SARS-CoV, UniProt P59594 14-1190)

| Binder | bead binding signal (median fluorescence, fold over isotype control) [fold over isotype control] |
| --- | --- |
| B1 | 989 |
| B2 | 1.29 |
| B3 | 1.14 |
| B4 | 1.22 |
| B5 | 2.46 |
| B6 | 1.34 |
| B7 | 0.99 |
| B8 | 1.21 |
| B9 | 439 |
| B10 | 1.27 |
| B11 | 1.26 |
| B12 | 1.16 |
| B13 | 1.19 |
| B14 | 1.09 |
| B15 | 1.16 |
| B16 | 1.12 |
| B17 | 1.08 |
| B18 | 1.09 |
| B19 | 1.23 |
| B20 | 1.08 |
| B21 | 1.09 |
| B22 | 1.08 |
